Entries after “also recorded” stand apart in the source; their conditions may differ. Where no end group is shown, it is not given here.
Key:
[1] = biological target: T1, semi-purified LCAT enzyme (Homo sapiens, UniProt P04180); assay: LCAT activation properties of the phospholipid-peptide complexes (HPLC of cholesteryl esters); assay type: biochemical; conditions: for Vmax compared with other complexes / apo AI-phospholipid complexes: Lineweaver-Burk plots; for Vmax (LCAT activation): PLPC/cholesterol/peptide discoidal complex as substrate, apparent kinetic constant, 37° C.; for kinetics of cholesterol esterification by LCAT (time course): discoidal complexes with PLPC and cholesterol, 0-24 h; for Vmax/Km A % of apo A1 (LCAT activation): relative to apo AI-phospholipid complex = 100
T1 construct: corresponds to the concentration relative to that in plasma by a factor of 5100, with the major contaminant being albumin; from tissue
T1 sequence (P04180 25-440): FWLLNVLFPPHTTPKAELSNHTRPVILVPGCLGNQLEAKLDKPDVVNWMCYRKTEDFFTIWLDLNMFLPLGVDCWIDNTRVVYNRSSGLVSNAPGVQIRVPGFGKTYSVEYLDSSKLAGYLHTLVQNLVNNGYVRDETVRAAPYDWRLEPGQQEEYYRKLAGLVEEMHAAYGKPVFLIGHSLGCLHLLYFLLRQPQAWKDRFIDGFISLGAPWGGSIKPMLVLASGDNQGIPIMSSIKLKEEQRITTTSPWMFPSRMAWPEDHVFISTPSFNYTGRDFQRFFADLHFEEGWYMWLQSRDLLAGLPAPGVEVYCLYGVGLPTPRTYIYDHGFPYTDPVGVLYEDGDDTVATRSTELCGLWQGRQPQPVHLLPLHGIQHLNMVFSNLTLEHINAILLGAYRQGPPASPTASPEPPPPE
Protocol: The activity of the LCAT enzyme with the various peptide-lipid complexes as substrates was determined by measuring the mount of cholesteryl esters generated during the enzymatic reaction by HPLC (Vercaemst et al., 1989).
The assay mixture consisted of variable mounts of complexes at cholesterol concentrations varying between 5 and 100 μM, 5 mg defatted bovine serum albumin (Sigma), 6 mM beta-mercaptoethanol in a reaction volume of 0.2 ml. After a preincubation of 20 min at 37° C., the enzymatic reaction was initiated by adding 3-6 μl of the semi-purified LCAT enzyme. The reaction was followed at 37° C. and was stopped by extraction of the incubation mixture with hexane-isopropanol 3:2, v/v. The solvent mixture contained either cholesteryl heptadecanoate (Sigma) or beta-sitosterol (Sigma) as internal standards for respectively cholesteryl esters and unesterified cholesterol quantification.
The unesterified cholesterol and the cholesteryl esters are identified and quantified by isocratic HPLC on a reversed-phase Zorbax ODS column, eluted with acetonitrile-isopropanol at a ratio of 90:10 v/v for unesterified cholesterol and of 50:50 v/v for cholesteryl esters. Detection was performed by measuring the UV absorbance at 205-210 nm. At a column temperature of 50° C. and with a flow-rate of 1.2 ml/min, the separation is completed within 25 min (Vercaemst et al., 1989). The sensitivity of this HPLC technique is similar to that of the conventional radioactive assay for polyunsaturated lecithin substrates (50 ng), and is about twice as low for saturated lecithins (80 ng).
The time course of cholesterol esterification by the LCAT enzyme with discoidal substrates consisting of PLPC, cholesterol, and the synthetic peptides, was followed between 0 and 24 h (Jonas, 1987). For the determination of the kinetic parameters, the initial velocities were determined in the linear portion of the curves, i.e. between 0-30% cholesteryl esters formation. The sample concentrations were in the range of 5×10^-7 to 5×10^-6 M with a constant enzyme volume of 5 μl, so that a linear production of cholesteryl esters formation was measured within 10 min at 37° C.
The initial kinetics (Vo) as a function of the apoprotein or peptide (C) concentrations were analyzed using a Lineweaver-Burk plot of 1/Vo versus 1/C. Linear regression analysis yielded the apparent kinetic parameters: Vmax, Km and Vmax/Km for each apoprotein or peptide-lipid complex. All kinetic experiments were performed at least three times and Vmax and Km values were expressed as mean ±error on the intercept and slope of the regression line.
The kinetics of the reaction of the semi-purified LCAT enzyme with discoidal complexes generated between the peptides, PLPC and cholesterol as substrate were followed between 0 and 24 h, and compared with those of the apo AI/PLPC/cholesterol complexes. The expression "semi-purified" corresponds to the concentration relative to that in plasma by a factor of 5100, with the major contaminant being albumin. The time course of the reaction, expressed as the percentage of esterified cholesterol as compared with the original substrate is shown on FIGS. 5a, 5b and 6 and in Table 2. […] After 24 h, more than 90% of the initial cholesterol present in all substrates was converted into cholesteryl esters (FIG. 5a).

[2] = Composition and gel chromatography of the isolated phospholipid-protein complexes; assay type: physicochemical; conditions: for Composition DPPC/Protein w/w: isolated complex with DPPC, maximum of elution peak
Protocol: Complexes were obtained by incubation of the peptides with dimyristoylphosphatidylcholine (DMPC, Sigma, St Louis, Mo.) vesicles at a DMPC/peptide, w/w ratio of 3/1 at 25° C. for 16 h. Complexes with dipalmitoylphosphatidylcholine (DPPC) were generated by the cholate dialysis procedure (Vanloo et al., 1991). All complexes were isolated by gel chromatography (FIG. 4) on a Superose PG column in a 0.01M Tris-HCl buffer, pH 8.0, 0.15M NaCl, 1 mM NaN3, 0.1 g/L EDTA. The column was first saturated with the phospholipid to avoid dissociation of the lipid-peptide complexes. The complexes were detected by continuous monitoring of the optical density at 280 nm and by measurement of the Trp emission of the fractions on a Jasco SP500 spectrofluorimeter. The composition and size of the complexes, were determined on the two fractions with maximal UV absorption in the elution peak of the complexes. The composition was determined by quantitation of the phospholipids using an enzymatic assay (Biomerieux, France), and of the peptide by an HPLC phenylalanine assay on a C18 reversed-phase column, after hydrolysis (Vanloo et al., 1991).

[3] = Percentage of alpha-helix structure by circular dichroism; assay type: physicochemical; conditions: for percentage of alpha-helix structure, peptide, CD: free peptide; for percentage of alpha-helix structure, DMPC/peptide, CD: phospholipid-peptide (DMPC) complex
Protocol: Table 1: corresponds to the percentage of alpha-helix structure in the free peptide and in the phospholipid-peptide (DMPC) complexes as determined by infrared spectroscopy (IR) and circular dichroism (CD).
Circular dichroism spectra of the peptides and their complexes with lipids were measured on a Jasco 600 spectropolarimeter at 23° C. (Brasscur et at., 1991). Measurements were carried out at a protein concentration of 0.1 mg/ml in a 0.01M sodium phosphate buffer pH 7.4. Nine spectra were collected and averaged for each sample. The secondary structure was estimated according to the generalized inverse method of Compton and Johnson (Compton et at., 1986).

Substance | Vmax compared with other complexes / apo AI-phospholipid complexes [1] | Vmax (LCAT activation) [1] | kinetics of cholesterol esterification by LCAT (time course) [1] | Vmax/Km A % of apo A1 (LCAT activation) [1] | complex size on Superose PG column ([2]; DPPC complexes, cholate dialysis) | Composition DPPC/Protein w/w [2] | percentage of alpha-helix structure, peptide, CD [3] | percentage of alpha-helix structure, DMPC/peptide, CD [3] | time at which plateau of esterification was reached ([1]; saturable kinetics)
EWLKAEYEKVEEKLKELF [M3] | considerably lower | 0.33 nmol CE/h | low rate of cholesterol esterification | 10.7% | much larger | 4/1 |  |  | 
EWLKAFYKKVLEKLKELF [M1] | two to three times lower; also recorded: considerably lower | 2.41 nmol CE/h | fastest kinetics | 15.4% |  | 3/1 | 20% | 46% | 
EWLEAFYKKVLEKLKELF [M4] | two to three times lower | 1.53 nmol CE/h | fastest kinetics |  |  | 3/1 | 50% | 65% | 
EWLKAEYEKVLEKLKELF [M2] |  | 0.33 nmol CE/h | low rate of cholesterol esterification | 3.3% |  | 2/1 | 30% | 46% | 
apo AI: native plasma apo AI purified from human plasma; major apoprotein constituent of HDL |  | 5.89 nmol CE/h | fastest kinetics | 100.0% |  | 2/1 | 29% | 47% | 2 to 4 h
